Assay results reported in US6589750B2, “Therapeutic use of the SMR1 protein, the SMR1 maturation products, specifically the QHNPR pentapeptide as well as its biologically active derivatives” (Institut Pasteur, priority 1997, dated 2003).
Square brackets hold non-standard residues; d marks the D form. Ends that are not written are not given here. pGlu = O=C1CC[C@@H](C(=O)O)N1

Columns and labels:
[1] = rat, in vivo
Procedure: Labeled compound i.e. 6.66 MBq, 3 nmoles or 2 mg for whole body autoradiography (WBA) and 370-555 KBq, 170-250 pmoles or 110-160 ng for the pharmacokinetic and cellular-site distribution studies was diluted in 100-200 ml of phosphate-buffered saline (PBS Dulbecco's, Bio Media, France) and administered intravenously into the jugular vein of anesthetized rats (halothan for WBA or pentobarbital for all the other experiments).
The five week-old rats were sacrificed under halothane, at 90 sec., 3, 60 and 240 min. after i.v. injection of 3 nmoles (6.66 MBq or 2 μg) of tritiated pentapeptide. At the selected time, the restrained animal was immediately immersed in a −80° C. mixture of dry ice and isopentane, to prevent artefactual tracer redistribution. After 48 hours in self-sealing plastic stored at −30° C., the animal was then blocked in mounting medium. Whole body sagittal sections (20 mm) of the frozen rat were made at −30° C. with a cryostat (whole body slicing microtome Leitz 400 with a chest mobil freezer Leitz O M, Leica, France). […]
The quantitative determination of the radioactivity in various organ sections was carried out by using a gaseous detector of β-particles, which has recently been developed (Charpak et al., 1989; Tribollet et al., 1991). […] The number of counts per pixel was recorded in the β imager 2200 (Biospace, France) with a surface detector of 20×20 cm^2, followed by computer-assisted image analysis with the β Vision program using a HP Vectra computer. The tritium activity was determined as counts/mm^2. The linearity of this method of detection allowed measurement of the non specific binding of ^3H-pentapeptide, measured in various structures or compartments within the section with apparent non binding sites for the peptide (background tissues, e.g. muscle and cardiac blood except brain and spinal cord) or in the same labeled structure, in displacement experiments. […]
Assessment of tissue peptide targeting was accomplished by a β-radio imager quantification (FIG. 2). […]

[2] = tested on: pentapeptide binding sites; test: Cellular localization of 3H-pentapeptide binding sites by light microscopic autoradiography, in vivo radiolabeling; design: species or system rat
Procedure: The cellular-site localization for physiological concentrations of labeled pentapeptide was investigated by paraffin- or resin-section microscopic autoradiography procedure.
Sixty minutes after ^3H-pentapeptide (555 KBq, 160 ng or 250 pmoles) i.v. administration, the anesthetized male rats were perfused via the jugular veins with ice-cold Krebs Ringer Bicarbonate Glucosed buffer and then 0.5% paraformaldehyde/0.5% glutaraldehyde fixative PBS buffer (plus glucose 1.6%, CaCl2 0.002% and DMSO 1%) (50 ml/5 min. for each). Tissues were rapidly removed and harvested for paraffin sectioning (Paraplast plus-Sherwood medical, OSI, France) or for resin sectioning (histo-resin Leica, France). All sections were cut at 5 microns (Reichert Jung for paraffin and RM2155 Leica for resin sections) and mounted on Superfrost/Plus glass slides (non gelatin-coated). Paraffin was removed with xylene, and sections were carried through a descending, then an ascending ethanol series (from 100 to 50%, VN and reverse). Dried sections were then processed for light microscope autoradiography by attaching nuclear emulsion-coated (Kodak, NTB2, diluted 1:1 with distilled water) coverslips to them. After air drying for 2 hrs at room temperature the autoradiographs were exposed for 6 to 10 weeks in light-tight boxes at 4° C. Radiosensitive coverslips were developed in Kodak D19 (3 min.) developer and fixed in Kodak fixer (3 min.) Sections were counterstained with Harris' hematoxylin (Prolabo, France) and Toluidine blue (Sigma, France), dehydrated and mounted in Eukitt medium. The tissue and overlying silver grains were viewed and photographed with a Leica photomicroscope equipped with bright-field optics (DMRD Leitz, Leica).

peptide binding sites = test: In vivo displacement experiments with coinjection of 100-fold excess of unlabeled peptide; design: species or system rat
From the text: Biological receptor sites have two essential characteristics that allow specific binding to be identified, in vivo; they have a high affinity for the ligand and the binding is saturable (Whitcomb et al., 1993). Therefore, displacement experiments, using parallel systemic administration of an excess of the corresponding unlabeled peptide has been performed. Furthermore, the specific cellular localization of labeled pentapeptide to target tissues has been identified by section microscopic autoradiography.
The tritium activity was determined as counts/mm^2.
In the case of radioactive quantification of organ sections or acid extracts, using a liquid scintillation counter (MR300 Kontron), the tritium activity was determined as cpm/mg protein. Protein concentration was determined by the Bradford method (Bradford et al., 1976).

[3] = Chromatographic characterization of radioactive peptide uptake by tissues (methanol extraction, RP-HPLC); type: in vivo, rat
Procedure: The chromatographic characteristics of the labeled compound associated, in vivo, to target organs were assessed by HPLC.
At selected time points (2 and 180 min.) after administration of tritiated pentapeptide, the anesthetized rats were sacrificed (cardiac blood puncture) and tissues quickly removed on ice. The tissues were immediately homogenized at 4° C. in 5-10 volumes of 0.1 M chlorhydric acid using a potter homogenizer (demineralization of bone tissue was realized after 24-48 h at 4° C. in guanidium hydrochloride and EDTA pretreatment, 4 M and 0.25 M final concentration, respectively). Homogenates were centrifuged for 30 min. at 4° C. and 15,000 g. To determine total radioactivity, aliquots of the supernatant solution were added to 50 volumes of Biofluor (NEN, Dupont de Nemours, France) and counted in a liquid scintillation counter.
To determine the radioactivity in the pentapeptide fraction, aliquots of the tissue extracts were submitted to a methanol-extraction procedure (Rougeot et al., 1994) after neutralization with Tris/HCl pH 8.5 containing 16 mM DTPA (DiethyleneTriaminePenta-Acetic acid, Sigma, France). The methanol phase was removed from the supernatant by partial evaporation, then lyophilization and the reconstituted aqueous phase containing 16 mM DTPA was applied to ODS AQ column (HPLC RP C18 chromatography) (AIT, France). Elution with a linear gradient of 0.1% trifluoro acetic (TFA) in water/0.1% TFA in acetonitrile (Merck, France) from 100/0 (vol/vol) to 50/50 (vol/vol) was performed for 30 min. at a flow rate of 1 ml/min. Fractions were collected every 60 sec. and analyzed for radioactivity using a liquid scintillation counter.

[4] = Pentapeptide metabolic and pharmacokinetic study after i.v. bolus of tritiated pentapeptide; type: in vivo, rat
Procedure: The in vivo time course of distribution, metabolism and elimination of the pentapeptide was investigated in anesthetized adult male rats using physiological concentrations of circulating tritiated pentapeptide.
Anesthetized male rats were given a bolus intravenous injection of 170 pmoles or 110 ng tritiated pentapeptide diluted in 100 μl PBS Dulbecco's. Blood was collected in tubes containing a mixture of peptidase inhibitors described above, via a silastic catheter implanted into the external jugular vein. Blood was withdrawn just before and 2, 4, 6, 8, 10, 20, 30, 45, 60, 90 and 120 min. after peptide administration. Two milliliters of blood per rat were taken in all and the entire urinary bladder content was collected at a last selected point.
The biological samples were submitted to centrifugation and Parapak Q extraction conditions, as described above. Chromatrography using HPLC procedure described above and in the reference (Rougeot et al., 1994) was then applied to each extracted sample. The ODS AQ RP-C18 was used for identification of amino-terminal metabolites and Pep RPC HR C18 (Pharmacia, France) for identification of carboxyl-terminal metabolites. The radioactivity content of samples before and after chromatographic separations was determined using a beta counter (Kontron, MR300).

anti-pentapeptide serum = test: competitive liquid phase RIA, unlabelled standard displaces 125I-labelled pentapeptide from the antiserum
[5] = 60 min, 100-fold excess unlabeled peptide
[6] = 180 min after injection, DTPA extraction

## QHNPR (not fully specified (residue 4)) [pentapeptide, final secretory maturation product of SMR1; used tritiated as (Glp1/Gln1)-His-Asn-(3,4 3H)Pro-Arg]
[1]
  persistence of label within target tissues: > 240 min
  radioactivity in intestinal content: No radioactivity was found in the intestinal content
  tissue to blood ratio: ~2
[2]; 60 min post-injection
  cellular localization of label in submandibular tissue: no selective cell association of label was identifiable
  cellular localization of silver grains in glandular gastric mucosa: over the chief or peptic cells
  cellular localization of silver grains in pancreatic tissue: over the cells of acini
  localization of silver grains in upper incisor root: over the entire dentin layer
[2]; 60 min post-injection of physiological concentration (160 ng)
  cellular localization of silver grains in kidney: over the epithelial cells of the S3 segment of the straight portion of the proximal tubules
Peptide binding sites; [5]
  specific labeling percentage, glandular mucosa of the stomach: 38-61%
  specific labeling percentage, long bone: 29-38%
  specific labeling percentage, pancreatic lobules: 37-55%
  specific labeling percentage, submandibular lobules: 51-91%
Peptide binding sites; 60 min post-coinjection of 100-fold excess of unlabeled peptide
  displacement of 3H-pentapeptide uptake within the renal outer medullary: almost complete displacement
Peptide binding sites; FIG. 8-B, depends on analysis method (total tissue count or regional analysis)
  specific labeling percentage, kidney: 12 to 92%
[3]; 5-20 min survival time after 3 nmoles 3H-pentapeptide
  tissue radioactivity extracted from acid homogenates by methanol: 72±4%
[3]; 180 min after injection
  radioactive peptide fraction extracted by methanol with DTPA (16 mM): 53±9%
[3]; [6]
  radioactive extract representing metabolites: 8±6%
  radioactive extract representing undissociated peptide complex: 29±14%
[3]; 180 min after injection, DTPA extraction, target organs
  radioactivity recovered in RP-HPLC peak of free pentapeptide: 52±8%
[4]; anesthetized rats, over a 60 min period, 170 pmoles injected
  radioactivity eliminated through glomerular filtration: 6 pmol
[4]; male rat
  distribution volume: 35-40 ml/100 g. body weight
[4]; plasma, dissociated by acidic pH treatment
  pentapeptide-binding substance complex as share of circulating peptide fraction: approximately 45%
[4]; single i.v. injection of 110 ng tritiated pentapeptide
  time from which plasma concentration is close to basal level: 30 min
[4]; single i.v. injection of 110 ng tritiated pentapeptide, two male rats
  time to maximal plasma level: ≤ 2 min
[4]; urinary bladder content
  urine radioactivity that is pentapeptide metabolites: Approximately 80%
[4]; within 4 min, proteolysis from the amino-terminal part
  infused pentapeptide metabolized in the bloodstream: 35%

## QHNPR [[Gln^1] pentapeptide]
anti-pentapeptide serum
  50% displacement of the 125I-labelled pentapeptide: < 570 fmol
  detection limit (80% binding): 106 fmol

## [pGlu]HNPR [[Glp^1] pentapeptide]
anti-pentapeptide serum
  50% displacement of the 125I-labelled pentapeptide: < 570 fmol
  detection limit (80% binding): 106 fmol
